According to publication doi:10.1101/2025.10.16.682781:

Experiments:
Experiment in all cases: ITC
[1] = target: FusB-CTD D322N (Pectobacterium carotovorum LMG2410)
[2] = target: FusB-CTD wild type (C-terminal domain of the TonB homologue FusB of Pectobacterium carotovorum LMG2410) (Pectobacterium carotovorum LMG2410)
[3] = target: FusB-CTD R241A (Pectobacterium carotovorum LMG2410)
[4] = target: FusB-CTD R241K (Pectobacterium carotovorum LMG2410)

Substance	Kd [1] [mM]	Kd [2] [mM]	Kd [3] [mM]	Kd [4] [mM]
FusANTR-GFP D53A (domain or fragment)	31.8	31.6		
FusANTR-GFP wild type (GFP fusion construct containing the N-terminal region, residues 21-66, of FusA) (domain or fragment)	0.0094		38.8	25.3
SpFer E93A/E94A (from UniProt P00221 51-147) (natural protein)		31.3		
SpFer F64Y (natural protein)		30.7		
